# Experimental data reported in patent US9605283B2, “Microorganism modified for the production of 1,3-propanediol” (INSTITUT NATIONAL DES SCIENCES APPLIQUÉES, priority 2012, dated 2017).
# Tests used:
# Type in all cases: biochemical
# [1] = PDO dehydrogenase activity (PDO-dependent reduction of NADP); conditions: 100 mM 1,3-propanediol, 10 mM NADP, 37° C., pH 8
# Experimental: PDO dehydrogenase activity was assayed by following the PDO-dependent reduction of NADP. 1,3-propanediol+NADP^+→3-hydroxypropional+NADPH Reaction scheme:
# Reactions were started by adding 100 mM 1,3-propanediol (PDO, Sigma).
# [2] = OHB decarboxylase activity (coupled to YqhD, NADPH); conditions: for Effect of mutation on activity and/or specificity for OHB (in words): versus wild-type enzyme
# Experimental: (§1) OHB decarboxylase activity was assayed by coupling the decarboxylase activity to the NADPH-dependent reduction of the released 3-hydroxypropanal by purified aldehyde reductase, YqhD, from E. coli. The decarboxylation of pyruvate was coupled to the NADH-dependent reduction of acetaldehyde catalysed by yeast alcohol dehydrogenase. Branched-chain alpha-ketoacid decarboxylase activity was measured on 4-methyl-2-oxovaleric acid by coupling to the NADH-dependent reduction of 3-methylbutanal catalysed by horse liver alcohol dehydrogenase. […] Reactions were started by adding 20 mM 2-oxo-4-hydroxybutyrate (OHB), 10 mM 4-methyl-2-oxovaleric acid (MOV), or 5 mM pyruvate.
# [3] = Branched-chain alpha-ketoacid decarboxylase activity (coupled to horse liver alcohol dehydrogenase)
# Experimental: as §1
# [4] = activity measured at 20 mM OHB, Table 10
# [5] = activity measured at 10 mM MOV (KdcA mutants), Table 10
Molecule,PDO dehydrogenase activity [1],"Max. specific activity, OHB ([2]; when not saturated, activity estimated at 20 mM substrate, Table 8)",OHB decarboxylase activity (in words) ([2]; wild-type enzymes),"Max. specific activity, Natural substrate ([3]; natural substrate 4-methyl-2-oxovaleric, Table 8)","Max. specific activity, OHB [2, 4]",Effect of mutation on activity and/or specificity for OHB (in words) [2],"Max. specific activity, Natural substrate [3, 5]"
"Ec-YqhD: alcohol dehydrogenase yqhD from Escherichia coli, used as PDO dehydrogenase (protein, UniProt Q46856 1-387, looked up) NADPH-dependent aldehyde …: MNNFNLHTPTRILFGKGAIAGLREQIPHDARVLITYGGGSVKKTGVLDQVLDALKGMDVLEFGGIEPNPAYETLMNAVKLVREQKVTFLLAVGGGSVLDGTKFIAAAANYPENIDPWHILQTGGKEIKSAIPMGCVLTLPATGSESNAGAVISRKTTGDKQAFHSAHVQPVFAVLDPVYTYTLPPRQVANGVVDAFVHTVEQYVTKPVDAKIQDRFAEGILLTLIEDGPKALKEPENYDVRANVMWAATQALNGLIGAGVPQDWATHMLGHELTAMHGLDHAQTLAIVLPALWNEKRDTKRAKLLQYAERVWNITEGSDDERIDAAIAATRNFFEQLGVPTHLSDYGLDGSSIPALLKKLEEHGMTQLGENHDITLDVSRRIYEAAR",0.15 µmol/min/mg,,,,,,
"Ll-KdcA: branched-chain alpha-ketoacid decarboxylase from L. lactis, SEQ ID No. 130 (protein, listed as Lactococcus lactis) MYTVGDYLLDRLHELGIEEIFGVPGDYNLQFLDQIISREDMKWIGNANELNASYMADGYARTKKAAAFLTTFGVGELSAINGLAGSYAENLPVVEIVGSPTSKVQNDGKFVHHTLADGDFKHFMKMHEPVTAARTLLTAENATYEIDRVLSQLLKERKPVYINLPVDVAAAKAEKPALSLEKESSTTNTTEQVILSKIEESLKNAQKPVVIAGHEVISFGLEKTVTQFVSETKLPITTLNFGKSAVDESLPSFLGIYNGKLSEISLKNFVESADFILMLGVKLTDSSTGAFTHHLDENKMISLNIDEGIIFNKVVEDFDFRAVVSSLSELKGIEYEGQYIDKQYEEFIPSSAPLSQDRLWQAVESLTQSNETIVAEQGTSFFGASTIFLKSNSRFIGQPLWGSIGYTFPAALGSQIADKESRHLLFIGDGSLQLTVQELGLSIREKLNPICFIINNDGYTVEREIHGPTQSYNDIPMWNYSKLPETFGATEDRVVSKIVRTENEFVSVMKEAQADVNRMYWIELVLEKEDAPKLLKKMGKLFAEQNK",,0.08 µmol/mg/min,significant OHB decarboxylase activity,4 µmol/mg/min,,,
"Ll-KdcA G402S: L. lactis KdcA mutant G402S, SEQ ID No. 196 (protein, listed as Lactococcus lactis) MYTVGDYLLDRLHELGIEEIFGVPGDYNLQFLDQIISREDMKWIGNANELNASYMADGYARTKKAAAFLTTFGVGELSAINGLAGSYAENLPVVEIVGSPTSKVQNDGKFVHHTLADGDFKHFMKMHEPVTAARTLLTAENATYEIDRVLSQLLKERKPVYINLPVDVAAAKAEKPALSLEKESSTTNTTEQVILSKIEESLKNAQKPVVIAGHEVISFGLEKTVTQFVSETKLPITTLNFGKSAVDESLPSFLGIYNGKLSEISLKNFVESADFILMLGVKLTDSSTGAFTHHLDENKMISLNIDEGIIFNKVVEDFDFRAVVSSLSELKGIEYEGQYIDKQYEEFIPSSAPLSQDRLWQAVESLTQSNETIVAEQGTSFFGASTIFLKSNSRFIGQPLWSSIGYTFPAALGSQIADKESRHLLFIGDGSLQLTVQELGLSIREKLNPICFIINNDGYTVEREIHGPTQSYNDIPMWNYSKLPETFGATEDRVVSKIVRTENEFVSVMKEAQADVNRMYWIELVLEKEDAPKLLKKMGKLFAEQNK",,,,,0.09 µmol/mg/min,increased activity and/or specificity for OHB,3.1 µmol/mg/min
"Ll-KdcA V461I: L. lactis KdcA mutant V461I, SEQ ID No. 198 (protein, listed as Lactococcus lactis) MYTVGDYLLDRLHELGIEEIFGVPGDYNLQFLDQIISREDMKWIGNANELNASYMADGYARTKKAAAFLTTFGVGELSAINGLAGSYAENLPVVEIVGSPTSKVQNDGKFVHHTLADGDFKHFMKMHEPVTAARTLLTAENATYEIDRVLSQLLKERKPVYINLPVDVAAAKAEKPALSLEKESSTTNTTEQVILSKIEESLKNAQKPVVIAGHEVISFGLEKTVTQFVSETKLPITTLNFGKSAVDESLPSFLGIYNGKLSEISLKNFVESADFILMLGVKLTDSSTGAFTHHLDENKMISLNIDEGIIFNKVVEDFDFRAVVSSLSELKGIEYEGQYIDKQYEEFIPSSAPLSQDRLWQAVESLTQSNETIVAEQGTSFFGASTIFLKSNSRFIGQPLWGSIGYTFPAALGSQIADKESRHLLFIGDGSLQLTVQELGLSIREKLNPICFIINNDGYTIEREIHGPTQSYNDIPMWNYSKLPETFGATEDRVVSKIVRTENEFVSVMKEAQADVNRMYWIELVLEKEDAPKLLKKMGKLFAEQNK",,,,,0.24 µmol/mg/min,increased activity and/or specificity for OHB,2.76 µmol/mg/min
